Source: IntAct's records for PubMed 20877282

B1: Semaphorin-6A (Mus musculus), O35464-1 (parent)
chain: MRPAALLLCLTLLHCAGAGFPEDSEPISISHGNYTKQYPVFVGHKPGRNTTQRHRLDIQMIMIMNRTLYVAARDHIYTVDIDTSHTEEIYCSKKLTWKSRQADVDTCRMKGKHKDECHNFIKVLLKKNDDTLFVCGTNAFNPSCRNYRVDTLETFGDEFSGMARCPYDAKHANIALFADGKLYSATVTDFLAIDAVIYRSLGDSPTLRTVKHDSKWLKEPYFVQAVDYGDYIYFFFREIAVEYNTMGKVVFPRVAQVCKNDMGGSQRVLEKQWTSFLKARLNCSVPGDSHFYFNILQAVTDVIRINGRDVVLATFSTPYNSIPGSAVCAYDMLDIANVFTGRFKEQKSPDSTWTPVPDERVPKPRPGCCAGSSSLEKYATSNEFPDDTLNFIKTHPLMDEAVPSIINRPWFLRTMVRYRLTKIAVDNAAGPYQNHTVVFLGSEKGIILKFLARIGSSGFLNGSLFLEEMNVYNPEKCSYDGVEDKRIMGMQLDRASGSLYVAFSTCVIKVPLGRCERHGKCKKTCIASRDPYCGWVRESGSCAHLSPLSRLTFEQDIERGNTDGLGDCHNSFVALNGHASSLYPSTTTSDSASRDGYESRGGMLDWNDLLEAPGSTDPLGAVSSHNHQDKKGVIRESYLKSNDQLVPVTLLAIAVILAFVMGAVFSGIIVYCVCDHRRKDVAVVQRKEKELTHSRRGSMSSVTKLSGLFGDTQSKDPKPEAILTPLMHNGKLATPSNTAKMLIKADQHHLDLTALPTPESTPTLQQKRKPNRGSREWERNQNIINACTKDMPPMGSPVIPTDLPLRASPSHIPSVVVLPITQQGYQHEYVDQPKMSEVVAQMALEDQAATLEYKTIKEHLSSKSPNHGVNLVENLDSLPPKVPQREASLGPPGTSLSQTGLSKRLEMQHSSSYGLEYKRSYPTNSLTRSHQTTTLKRNNTNSSNSSHLSRNQSFGRGDNPPPAPQRVDSIQVHSSQPSGQAVTVSRQPSLNAYNSLTRSGLKRTPSLKPDVPPKPSFAPLSTSMKPNDACT
B2: Plexin-A2 (Mus musculus), P70207 (parent)
chain: MEQRRFYLRAMQADNLSVVLLSVAWLLLARGTTGMPQYSTFHSENRDWTFNHLTVHRRTGAVYVGAINRVYKLTGNLTIQVAHKTGPEEDNKACYPPLIVQPCSEVLTLTNNVNKLLIIDYSENRLLACGSLYQGVCKLLRLDDLFILVEPSHKKEHYLSSVNKTGTMYGVIVRSEGEDGKLFIGTAVDGKQDYFPTLSSRKLPRDPESSAMLDYELHSDFVSSLIKIPSDTLALVSHFDIFYIYGFASGGFVYFLTVQPETPDGMAINSAGDLFYTSRIVRLCKDDPKFHSYVSLPFGCTRAGVEYRLLQAAYLAKPGEALAQAFNISSDEDVLFAIFSKGQKQYHHPPDDSALCAFPIRAINLQIKERLQSCYHGEGNLELNWLLGKDVQCTKAPVPIDDNFCGLDINQPLGGSTPVEGLTLYTTSRDRLTSVASYVYNGYSVVFVGTKSGKLKKIRADGPPHGGVQYEMVSVFKDGSPILRDMAFSINQLYLYVMSERQVTRVPVESCEQYTTCGECLSSGDPHCGWCALHNMCSRRDKCQRAWEANRFAASISQCMSLEVHPNSISVSDHSRLLSLVVNDAPNLSEGIACAFGNLTEVEGQVSGSQVICISPGPKDVPVIPLDQDWFGLELQLRSKETGKIFVSTEFKFYNCSAHQLCLSCVNSAFRCHWCKYRNLCTHDPTTCSFQEGRINVSEDCPQLVPTEEILIPVGEVKPITLKARNLPQPQSGQRGYECVLSIQGAVHRVPALRFNSSSVQCQNSSYQYDGMDISNLAVDFAVVWNGNFIIDNPQDLKVHLYKCAAQRESCGLCLKADHKFECGWCSGERRCTLHQHCPSTSSPWLDWSSHNVKCSNPQITEILTVSGPPEGGTRVTIHGVNLGLDFSEIAHHVQVAGVPCTPIPGEYIIAEQIVCEMGHAVIGTTSGPVRLCIGECKPEFMTKSHQQYTFVNPSVLSLSPIRGPESGGTMVTITGHYLGAGSSVAVYLGNQTCEFYGRSMNEIVCVSPPSSNGLGPVPVSVSVDRARVDSSLQFEYIDDPRVQRIEPEWSITSGHTPLTITGFNLDVIQEPRVRVKFNGKESVNVCTVVNTTTLTCLAPSLTSDYRPGLDTVERPDEFGFLFNNVQSLLIYNDTKFIYYPNPTFELLSPTGILDQKPGSPIILKGKNLCPPASGGAKLNYTVMIGETPCTVTVSETQLLCEPPNLTGQHKVMVHVGGMVFSPGSVSVISDSLLTLPAIISIAAGGSLLLIIVIIVLIAYKRKSRENDLTLKRLQMQMDNLESRVALECKEAFAELQTDINELTSDLDRSGIPYLDYRTYAMRVLFPGIEDHPVLRELEVQGNGQQHVEKALKLFAQLINNKVFLLTFIRTLELQRSFSMRDRGNVASLIMTGLQGRLEYATDVLKQLLSDLIDKNLENKNHPKLLLRRTESVAEKMLTNWFAFLLHKFLKECAGEPLFMLYCAIKQQMEKGPIDAITGEARYSLSEDKLIRQQIEYKTLILNCVNPDNENSPEIPVKVLNCDTITQVKEKILDAVYKNVPYSQRPRAVDMDLEWRQGRIARVVLQDEDITTKIEGDWKRLNTLMHYQVSDRSVVALVPKQTSSYNIPASASISRTSISRYDSSFRYTGSPDSLRSRVPMITPDLESGVKVWHLVKNHDHGDQKEGDRGSKMVSEIYLTRLLATKGTLQKFVDDLFETLFSTVHRGSALPLAIKYMFDFLDEQADRHSIHDTDVRHTWKSNCLPLRFWVNVIKNPQFVFDIHKGSITDACLSVVAQTFMDSCSTSEHRLGKDSPSNKLLYAKDIPSYKNWVERYYADIAKLPAISDQDMNAYLAEQSRLHATEFNMLSALNEIYSYVSKYSEELIGALEQDEQARRQRLAYKVEHLINAMSIES
partner: B1 chain

Variants of: B1
Details: with plxa2_mouse Plxna2, P70207

effect of a mutation on the interaction	Variant
decreasing interaction	L191R

Variants of: B2
Details: with Sema6a

effect of a mutation on the interaction	Variant
disrupting interaction	F221R
disrupting interaction	A396E
